In US20120058906A1 one finds ECL signal data, which are given here for 3 substances.

Assay [1] addresses rHuman CD44/Fc Chimera, CF (R&D Systems Cat#3660-CD) (human) (UniProt P16070). Description: ECL (MSD multi-spot) titration, Fab at 0.0625 uM; blank spot 1738.
Assay [2] shares this target. Description: ECL (MSD multi-spot) titration, Fab at 0.00391 uM; blank spot 576.
The target is the same in assay [3]. Description: MSD ECL multi-spot assay, antigen spotted on plate, Fab 0.25 uM; blank spot 3693.
In assay [4] the target is rHuman HGF R/c-MET/Fc Chimera, CF (R&D Systems Cat#358-MT/CF) (human) (UniProt P08581). The assay is described as above.
Assay [5] addresses rHuman CD44/Fc Chimera, CF (R&D Systems Cat#3660-CD) (human) (UniProt P16070). Description: ECL (MSD multi-spot) titration, Fab at 0.25 uM; blank spot 6344.
Assay [6] shares this target. Description: ECL (MSD multi-spot) titration, Fab at 0.01563 uM; blank spot 906.
The target is the same in assay [7]. In words: ECL (MSD Multi-Spot) titration, antigen spotted on plate; Fab 0.312 µM; blank spot 1977.
Assay [8] deals with rHuman Notch-1/Fc Chimera, CF (R&D Systems Cat#3647-TK) (human) (UniProt P46531). Described as above.
Assay [9] addresses rHuman HGF R/c-MET/Fc Chimera, CF (R&D Systems Cat#358-MT/CF) (human) (UniProt P08581). The description is as above.
The target of assay [10] is Recombinant Human DLL4 (R&D Systems Cat#1506-D4/CF) (human) (UniProt Q9NR61). Described as above.
In assay [11] the target is rHuman Erythropoietin R/Fc Chimera, CF (R&D Systems Cat#963-ER) (human) (UniProt P19235). The assay is described as above.
Assay [12] has as its target rHuman EGF R/Fc Chimera, CF (R&D Systems Cat#344-ER) (human) (UniProt P00533). The assay is described as above.
In assay [13] the target is rHuman ErbB2/Fc Chimera, CF (R&D Systems Cat#1129-ER) (human) (UniProt P04626). The assay is described as above.
For assay [14], the target named is rHuman CD44/Fc Chimera, CF (R&D Systems Cat#3660-CD) (human) (UniProt P16070). In words: MSD ECL multi-spot assay, antigen spotted on plate, Fab […]; blank spot 1129.
Assay [15] addresses rHuman Notch-1/Fc Chimera, CF (R&D Systems Cat#3647-TK) (human) (UniProt P46531). Described as above.
Assay [16] has as its target rHuman HGF R/c-MET/Fc Chimera, CF (R&D Systems Cat#358-MT/CF) (human) (UniProt P08581). The assay is described as above.
Assay [17] concerns the target Recombinant Human DLL4 (R&D Systems Cat#1506-D4/CF) (human) (UniProt Q9NR61). Described as above.
Assay [18] concerns the target rHuman Erythropoietin R/Fc Chimera, CF (R&D Systems Cat#963-ER) (human) (UniProt P19235). Described as above.
The target of assay [19] is rHuman EGF R/Fc Chimera, CF (R&D Systems Cat#344-ER) (human) (UniProt P00533). Described as above.
Assay [20] addresses rHuman ErbB2/Fc Chimera, CF (R&D Systems Cat#1129-ER) (human) (UniProt P04626). The assay is described as above.
Assay [21] addresses rHuman CD44/Fc Chimera, CF (R&D Systems Cat#3660-CD) (human) (UniProt P16070). Description: ECL (MSD Multi-Spot) titration, antigen spotted on plate; Fab 0.0624 µM; blank spot 960.
The target in assay [22] is rHuman Notch-1/Fc Chimera, CF (R&D Systems Cat#3647-TK) (human) (UniProt P46531). The assay is described as above.
For assay [23], the target named is rHuman HGF R/c-MET/Fc Chimera, CF (R&D Systems Cat#358-MT/CF) (human) (UniProt P08581). The description is as above.
Assay [24] concerns the target Recombinant Human DLL4 (R&D Systems Cat#1506-D4/CF) (human) (UniProt Q9NR61). The description is as above.
Assay [25] addresses rHuman Erythropoietin R/Fc Chimera, CF (R&D Systems Cat#963-ER) (human) (UniProt P19235). The description is as above.
Assay [26] concerns the target rHuman EGF R/Fc Chimera, CF (R&D Systems Cat#344-ER) (human) (UniProt P00533). The description is as above.
Assay [27] deals with rHuman ErbB2/Fc Chimera, CF (R&D Systems Cat#1129-ER) (human) (UniProt P04626). The description is as above.
Assay [28] addresses rHuman CD44/Fc Chimera, CF (R&D Systems Cat#3660-CD) (human) (UniProt P16070). Description: ECL (MSD Multi-Spot) titration, antigen spotted on plate; Fab […]; blank spot 4357.
Assay [29] deals with rHuman Notch-1/Fc Chimera, CF (R&D Systems Cat#3647-TK) (human) (UniProt P46531). The assay is described as above.
In assay [30] the target is rHuman HGF R/c-MET/Fc Chimera, CF (R&D Systems Cat#358-MT/CF) (human) (UniProt P08581). Described as above.
For assay [31], the target named is Recombinant Human DLL4 (R&D Systems Cat#1506-D4/CF) (human) (UniProt Q9NR61). The description is as above.
The target in assay [32] is rHuman Erythropoietin R/Fc Chimera, CF (R&D Systems Cat#963-ER) (human) (UniProt P19235). Described as above.
Assay [33] has as its target rHuman EGF R/Fc Chimera, CF (R&D Systems Cat#344-ER) (human) (UniProt P00533). The description is as above.
The target in assay [34] is rHuman ErbB2/Fc Chimera, CF (R&D Systems Cat#1129-ER) (human) (UniProt P04626). The assay is described as above.
For assay [35], the target named is rHuman Notch-1/Fc Chimera, CF (R&D Systems Cat#3647-TK) (human) (UniProt P46531). Description: MSD ECL multi-spot plate, antigen immobilized; Fab 421.12 nM; blank spot 639.
The target in assay [36] is rHuman HGF R/c-MET/Fc Chimera, CF (R&D Systems Cat#358-MT/CF) (human) (UniProt P08581). The assay is described as above.
The target in assay [37] is Recombinant Human DLL4 (R&D Systems Cat#1506-D4/CF) (human) (UniProt Q9NR61). Described as above.
The target of assay [38] is rHuman Erythropoietin R/Fc Chimera, CF (R&D Systems Cat#963-ER) (human) (UniProt P19235). Described as above.
Assay [39] has the same target. In words: ECL (MSD multi-spot) screen, antigen spotted on plate, Fab at 0.42 uM; blank spot 450.
Assay [40] addresses rHuman Notch-1/Fc Chimera, CF (R&D Systems Cat#3647-TK) (human) (UniProt P46531). In words: MSD ECL multi-spot plate, antigen immobilized; Fab 42.112 nM; blank spot 323.
In assay [41] the target is rHuman HGF R/c-MET/Fc Chimera, CF (R&D Systems Cat#358-MT/CF) (human) (UniProt P08581). The assay is described as above.
The target in assay [42] is Recombinant Human DLL4 (R&D Systems Cat#1506-D4/CF) (human) (UniProt Q9NR61). The assay is described as above.
The target of assay [43] is rHuman Erythropoietin R/Fc Chimera, CF (R&D Systems Cat#963-ER) (human) (UniProt P19235). The description is as above.

Sequence of rHuman Erythropoietin R/Fc Chimera, CF (R&D Systems Cat#963-ER) (human) (P19235 25-250, change not shown): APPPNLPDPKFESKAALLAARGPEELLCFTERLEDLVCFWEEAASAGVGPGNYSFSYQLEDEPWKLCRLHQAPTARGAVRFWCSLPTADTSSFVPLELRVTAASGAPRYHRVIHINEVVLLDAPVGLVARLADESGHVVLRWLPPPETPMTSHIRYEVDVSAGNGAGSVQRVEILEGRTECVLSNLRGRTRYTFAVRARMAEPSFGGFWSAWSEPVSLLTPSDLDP

For the substance “Fab VH1-46_IGHD2-15*01_IGHJ2*01 & L2_IGKJ1*01”, the ECL signal turned out to be 6750 in assay [1]; 1300 in [2]; 10400 in assay [3]; 5910 in [4]; 23000 in [5]; 3180 in assay [6].

With “Fab VH1-46_IGHD7-27*01_IGHJ2*01 & L6_IGKJ1*01”, the ECL signal in assay [7] amounted to 4170; in assay [8], 4460; in assay [9], 4690; in assay [10] it was 5480; in assay [11], 5020; in assay [12], 4330. Also, the ECL signal in [13] worked out at 3660; in assay [14] it was 2280; in assay [15], 3950; in assay [16], 3120; in assay [17], 3770; in assay [18], 4130. Besides, the ECL signal in assay [19] turned out to be 2500; in assay [20] it was 2450; in [21] it was 2110; in [22], 2350; in [23] it was 2450; in assay [24], 2580. The ECL signal in [25] came out at 2680; in assay [26] it was 2420; in assay [27], 2150; in assay [28] it was 7600; in assay [29], 9450; in assay [30] it was 10300. For the same substance, the ECL signal in assay [31] came out at 10900; in [32], 9480; in assay [33] it was 7830; in assay [34] it was 7580.

For the substance “Fab VH3-23_IGHD3-10*01>1′_IGHJ3*01 & O12_IGKJ1*01”, the ECL signal amounted to 1060 ECL signal in assay [35]; 1200 ECL signal in assay [36]; 1090 ECL signal in [37]; 1300 ECL signal in assay [38]; 1500 in [39]; 437 ECL signal in [40]. For the same substance, the ECL signal in assay [41] is 565 ECL signal; in [42], 404 ECL signal; in [43], 759 ECL signal.
